Reference: patent publication US20240325555A1

Legend:
[1] = molecular target: T1, rat LIV-1 (rat) (UniProt Q4V887); experiment: FACS, HEK293/Rat_LIV-1 cells
T1 sequence (looked up): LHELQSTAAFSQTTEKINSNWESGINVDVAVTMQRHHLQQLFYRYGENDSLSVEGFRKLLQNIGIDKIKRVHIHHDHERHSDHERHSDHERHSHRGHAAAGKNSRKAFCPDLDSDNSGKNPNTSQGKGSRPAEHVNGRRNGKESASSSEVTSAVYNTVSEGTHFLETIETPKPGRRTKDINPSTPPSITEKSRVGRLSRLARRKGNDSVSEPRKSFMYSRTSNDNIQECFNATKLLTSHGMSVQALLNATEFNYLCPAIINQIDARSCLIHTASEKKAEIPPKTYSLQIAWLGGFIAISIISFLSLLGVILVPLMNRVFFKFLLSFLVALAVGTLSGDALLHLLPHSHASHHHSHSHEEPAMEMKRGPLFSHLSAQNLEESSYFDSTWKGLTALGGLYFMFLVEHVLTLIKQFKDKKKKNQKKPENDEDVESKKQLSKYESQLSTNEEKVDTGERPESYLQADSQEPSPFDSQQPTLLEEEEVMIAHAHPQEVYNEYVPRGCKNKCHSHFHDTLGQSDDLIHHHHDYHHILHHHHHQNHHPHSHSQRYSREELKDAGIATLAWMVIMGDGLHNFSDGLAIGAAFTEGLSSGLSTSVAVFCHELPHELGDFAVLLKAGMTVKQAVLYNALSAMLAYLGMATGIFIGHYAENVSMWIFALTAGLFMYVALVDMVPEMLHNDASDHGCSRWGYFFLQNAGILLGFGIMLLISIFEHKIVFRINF

[2] = molecular target: T2, mouse LIV-1 (mouse) (UniProt Q8C145); experiment: FACS, HEK293/Mouse_LIV-1 cells
T2 sequence (looked up): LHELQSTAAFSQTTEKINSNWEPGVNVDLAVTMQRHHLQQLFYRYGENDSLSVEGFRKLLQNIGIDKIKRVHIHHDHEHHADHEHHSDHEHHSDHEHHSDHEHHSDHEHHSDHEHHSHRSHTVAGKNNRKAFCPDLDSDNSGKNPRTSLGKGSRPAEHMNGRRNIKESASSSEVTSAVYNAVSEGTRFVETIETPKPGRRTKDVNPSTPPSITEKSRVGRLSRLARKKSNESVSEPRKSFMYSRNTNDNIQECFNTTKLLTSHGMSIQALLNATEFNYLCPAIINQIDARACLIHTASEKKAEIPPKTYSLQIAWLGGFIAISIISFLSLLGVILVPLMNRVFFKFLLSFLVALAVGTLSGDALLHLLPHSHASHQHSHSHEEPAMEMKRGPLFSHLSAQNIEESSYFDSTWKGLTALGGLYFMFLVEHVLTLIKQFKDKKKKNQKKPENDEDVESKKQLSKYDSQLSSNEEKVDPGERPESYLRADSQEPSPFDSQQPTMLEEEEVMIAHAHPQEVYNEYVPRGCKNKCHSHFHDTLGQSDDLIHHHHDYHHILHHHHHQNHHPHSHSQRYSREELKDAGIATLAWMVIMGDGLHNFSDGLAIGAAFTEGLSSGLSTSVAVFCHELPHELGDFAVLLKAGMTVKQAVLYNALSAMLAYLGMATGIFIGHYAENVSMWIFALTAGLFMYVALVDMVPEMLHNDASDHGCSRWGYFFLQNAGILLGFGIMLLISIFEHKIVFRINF

- Top (MFI) [1]: 119 MFI
- Top (MFI) [2]: 114 MFI
Substance: hIgG1 Isotype (antibody)
